For the test, the target named is T1, wild-type TrpB, beta subunit of tryptophan synthase from Salmonella typhimurium (Salmonella typhimurium, UniProt P0A2K1 1-397).
T1 construct: TrpB (tryptophan synthase beta chain), Salmonella typhimurium; it carries pyridoxal phosphate as internal aldimine on bK87
T1 sequence: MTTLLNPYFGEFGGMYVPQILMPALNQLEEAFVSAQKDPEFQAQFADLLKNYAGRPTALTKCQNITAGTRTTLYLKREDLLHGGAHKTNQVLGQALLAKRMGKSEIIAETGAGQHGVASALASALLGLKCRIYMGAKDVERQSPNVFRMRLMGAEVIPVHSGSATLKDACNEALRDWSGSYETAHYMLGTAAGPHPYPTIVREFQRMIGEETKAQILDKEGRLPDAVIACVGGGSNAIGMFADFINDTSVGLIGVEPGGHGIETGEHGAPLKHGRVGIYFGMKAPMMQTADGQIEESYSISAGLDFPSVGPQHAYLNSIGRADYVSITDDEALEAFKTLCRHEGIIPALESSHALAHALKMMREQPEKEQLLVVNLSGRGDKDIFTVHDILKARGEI
Nature of the test: SEC. The conditions noted are these: both partners purified.

B1: wild-type TrpA, alpha subunit of tryptophan synthase from Salmonella typhimurium (enzyme, UniProt P00929 1-268, looked up)
chain: MERYENLFAQLNDRREGAFVPFVTLGDPGIEQSLKIIDTLIDAGADALELGVPFSDPLADGPTIQNANLRAFAAGVTPAQCFEMLALIREKHPTIPIGLLMYANLVFNNGIDAFYARCEQVGVDSVLVADVPVEESAPFRQAALRHNIAPIFICPPNADDDLLRQVASYGRGYTYLLSRSGVTGAENRGALPLHHLIEKLKEYHAAPALQGFGISSPEQVSAAVRAGAAGAISGSAIVKIIEKNLASPKQMLAELRSFVSAMKAASRA
notes: TrpA (tryptophan synthase alpha chain), Salmonella typhimurium
Consider B1, for which the binding result is “binds”.

For the origin of these results see paper PMC6829457, “Light-Regulation of Tryptophan Synthase by Combining Protein Design and Enzymology” (International Journal of Molecular Sciences, 2019).
